Assay results as given in doi:10.1101/2021.06.21.449265 (bioRxiv, 2021).

T1: Fy-1 (Tbck) (human, UniProt Q8TEA7 1-893)
T1 sequence (looked up): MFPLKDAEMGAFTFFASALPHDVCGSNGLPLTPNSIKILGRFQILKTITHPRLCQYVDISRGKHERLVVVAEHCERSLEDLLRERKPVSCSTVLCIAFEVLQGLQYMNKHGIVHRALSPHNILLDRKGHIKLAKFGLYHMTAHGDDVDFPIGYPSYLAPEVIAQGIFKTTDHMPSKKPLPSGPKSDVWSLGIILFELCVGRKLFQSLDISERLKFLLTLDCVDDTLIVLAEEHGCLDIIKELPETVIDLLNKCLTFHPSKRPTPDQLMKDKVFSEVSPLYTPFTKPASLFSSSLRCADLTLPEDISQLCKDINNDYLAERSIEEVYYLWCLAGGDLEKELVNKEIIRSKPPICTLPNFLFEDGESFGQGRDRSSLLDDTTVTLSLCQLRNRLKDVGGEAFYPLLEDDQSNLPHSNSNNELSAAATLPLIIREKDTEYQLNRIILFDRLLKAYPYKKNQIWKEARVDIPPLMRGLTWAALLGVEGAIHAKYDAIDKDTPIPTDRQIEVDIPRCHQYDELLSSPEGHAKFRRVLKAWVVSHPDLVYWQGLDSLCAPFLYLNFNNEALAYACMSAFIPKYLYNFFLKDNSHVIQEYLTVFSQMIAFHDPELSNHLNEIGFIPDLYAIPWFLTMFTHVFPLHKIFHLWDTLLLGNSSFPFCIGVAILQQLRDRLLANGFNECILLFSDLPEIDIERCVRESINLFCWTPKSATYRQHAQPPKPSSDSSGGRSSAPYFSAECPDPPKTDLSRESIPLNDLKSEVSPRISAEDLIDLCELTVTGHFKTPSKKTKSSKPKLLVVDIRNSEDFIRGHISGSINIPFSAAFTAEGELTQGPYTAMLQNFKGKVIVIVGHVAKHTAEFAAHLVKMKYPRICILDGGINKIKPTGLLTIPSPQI

B1: Fy-2 (Ppp1r21) (natural protein, human, UniProt Q6ZMI0 1-780, looked up)
chain: MASAELQGKYQKLAQEYSKLRAQNQVLKKGVVDEQANSAALKEQLKMKDQSLRKLQQEMDSLTFRNLQLAKRVELLQDELALSEPRGKKNKKSGESSSQLSQEQKSVFDEDLQKKIEENERLHIQFFEADEQHKHVEAELRSRLATLETEAAQHQAVVDGLTRKYMETIEKLQNDKAKLEVKSQTLEKEAKECRLRTEECQLQLKTLHEDLSGRLEESLSIINEKVPFNDTKYSQYNALNVPLHNRRHQLKMRDIAGQALAFVQDLVTALLNFHTYTEQRIQIFPVDSAIDTISPLNQKFSQYLHENASYVRPLEEGMLHLFESITEDTVTVLETTVKLKTFSEHLTSYICFLRKILPYQLKSLEEECESSLCTSALRARNLELSQDMKKMTAVFEKLQTYIALLALPSTEPDGLLRTNYSSVLTNVGAALHGFHDVMKDISKHYSQKAAIEHELPTATQKLITTNDCILSSVVALTNGAGKIASFFSNNLDYFIASLSYGPKAASGFISPLSAECMLQYKKKAAAYMKSLRKPLLESVPYEEALANRRILLSSTESREGLAQQVQQSLEKISKLEQEKEHWMLEAQLAKIKLEKENQRIADKLKNTGSAQLVGLAQENAAVSNTAGQDEATAKAVLEPIQSTSLIGTLTRTSDSEVPDVESREDLIKNHYMARIVELTSQLQLADSKSVHFYAECRALSKRLALAEKSKEALTEEMKLASQNISRLQDELTTTKRSYEDQLSMMSDHLCSMNETLSKQREEIDTLKMSSKGNSKKNKSR

How the values were obtained:
[1] = molecular target: T1, Fy-1 (Tbck); assay: HDX-MS
[2] = molecular target: the molecule itself; assay: cryo-EM structure
[3] = molecular target: B1; assay: HDX-MS
[4] = molecular target: B1; assay: cryo-EM structure

Binder | binding result [1] | stoichiometry N [2] | binding result [3] | binding result [4]
B1 | binds | 2 | – | –
Fy-5 (Gatd1) (natural protein, human, UniProt Q8NB37 1-220, looked up) MASERLPNRPACLLVASGAAEGVSAQSFLHCFTMASTAFNLQVATPGGKAMEFVDVTESNARWVQDFRLKAYASPAKLESIDGARYHALLIPSCPGALTDLASSGSLARILQHFHSESKPICAVGHGVAALCCATNEDRSWVFDSYSLTGPSVCELVRAPGFARLPLVVEDFVKDSGACFSASEPDAVHVVLDRHLVTGQNASSTVPAVQNLLFLCGSRK | – | 2 | – | –
Fy-3 (C12orf4) (natural protein, human, UniProt Q9NQ89 1-552, looked up) MKKNRERFCNREREFVYKFKVGSQCLELRVPLKFPVQENASHLHGRLMLLHSLPCFIEKDLKEALTQFIEEESLSDYDRDAEASLAAVKSGEVDLHQLASTWAKAYAETTLEHARPEEPSWDEDFADVYHDLIHSPASETLLNLEHNYFVSISELIGERDVELKKLRERQGIEMEKVMQELGKSLTDQDVNSLAAQHFESQQDLENKWSNELKQSTAIQKQEYQEWVIKLHQDLKNPNNSSLSEEIKVQPSQFRESVEAIGRIYEEQRKLEESFTIHLGAQLKTMHNLRLLRADMLDFCKHKRNHRSGVKLHRLQTALSLYSTSLCGLVLLVDNRINSYSGIKRDFATVCQECTDFHFPRIEEQLEVVQQVVLYARTQRRSKLKESLDSGNQNGGNDDKTKNAERNYLNVLPGEFYITRHSNLSEIHVAFHLCVDDHVKSGNITARDPAIMGLRNILKVCCTHDITTISIPLLLVHDMSEEMTIPWCLRRAELVFKCVKGFMMEMASWDGGISRTVQFLVPQSISEEMFYQLSNMLPQIFRVSSTLTLTSKH | – | – | binds | –
Fy-4 (Cryzl1) (natural protein, human, UniProt O95825 1-349, looked up) MKGLYFQQSSTDEEITFVFQEKEDLPVTEDNFVKLQVKACALSQINTKLLAEMKMKKDLFPVGREIAGIVLDVGSKVSFFQPDDEVVGILPLDSEDPGLCEVVRVHEHYLVHKPEKVTWTEAAGSIRDGVRAYTALHYLSHLSPGKSVLIMDGASAFGTIAIQLAHHRGAKVISTACSLEDKQCLERFRPPIARVIDVSNGKVHVAESCLEETGGLGVDIVLDAGVRLYSKDDEPAVKLQLLPHKHDIITLLGVGGHWVTTEENLQLDPPDSHCLFLKGATLAFLNDEVWNLSNVQQGKYLCILKDVMEKLSTGVFRPQLDEPIPLYEAKVSMEAVQKNQGRKKQVVQF | – | 2 | – | binds
Rab5 (Rab5a), GTPγS loaded (natural protein, human, UniProt P20339 1-215, looked up) MASRGATRPNGPNTGNKICQFKLVLLGESAVGKSSLVLRFVKGQFHEFQESTIGAAFLTQTVCLDDTTVKFEIWDTAGQERYHSLAPMYYRGAQAAIVVYDITNEESFARAKNWVKELQRQASPNIVIALSGNKADLANKRAVDFQEAQSYADDNSLLFMETSAKTSMNVNEIFMAIAKKLPKNEPQNPGANSARGRGVDLTEPTQPTRNQCCSN | – | – | binds | –
